The source of these data is article PMC3553987 (Nucleic Acids Research, 2012).

Assay [1] concerns GAS consensus site DNA (TTCnnnGAA). Kind of assay: TIRF-PBM binding of STAT1 proteins to DNA.
Another assay has as its system GAS cognate DNA. The assay can be described thus: EMSA with P32-labeled cognate DNA. Particulars: data not shown. Type of assay: binding. For orientation: In EMSA bound probe runs differently from free probe, usually more slowly.

B1: U-STAT1: unphosphorylated STAT1 (protein, UniProt P42224 2-750, looked up)
Signal transducer and …: SQWYELQQLDSKFLEQVHQLYDDSFPMEIRQYLAQWLEKQDWEHAANDVSFATIRFHDLLSQLDDQYSRFSLENNFLLQHNIRKSKRNLQDNFQEDPIQMSMIIYSCLKEERKILENAQRFNQAQSGNIQSTVMLDKQKELDSKVRNVKDKVMCIEHEIKSLEDLQDEYDFKCKTLQNREHETNGVAKSDQKQEQLLLKKMYLMLDNKRKEVVHKIIELLNVTELTQNALINDELVEWKRRQQSACIGGPPNACLDQLQNWFTIVAESLQQVRQQLKKLEELEQKYTYEHDPITKNKQVLWDRTFSLFQQLIQSSFVVERQPCMPTHPQRPLVLKTGVQFTVKLRLLVKLQELNYNLKVKVLFDKDVNERNTVKGFRKFNILGTHTKVMNMEESTNGSLAAEFRHLQLKEQKNAGTRTNEGPLIVTEELHSLSFETQLCQPGLVIDLETTSLPVVVISNVSQLPSGWASILWYNMLVAEPRNLSFFLTPPCARWAQLSEVLSWQFSSVTKRGLNVDQLNMLGEKLLGPNASPDGLIPWTRFCKENINDKNFPFWLWIESILELIKKHLLPLWNDGCIMGFISKERERALLKDQQPGTFLLRFSESSREGAITFTWVERSQNGGEPDFHAVEPYTKKELSAVTFPDIIRNYKVMAAENIPENPLKYLYPNIDKDHAFGKYYSRPKEAPEPMELDGPKGTGYIKTELISVSEVHPSRLQTTDNLLPMSPEEFDEVSRIVGSVEFDSMMNTV
modifications: unphosphorylated
Turning to B1, the “fold impact on affinity compared to P-STAT1 binding” value in assay [1] (optimal GAS site DNA) was over 100 fold. In addition, in the assay on GAS cognate DNA, the “fold decrease in binding affinity vs P-STAT1” value is on record as over 200 fold.

B2: P-STAT1tc: Phosphorylated truncated STAT1 lacking N-terminal domain and short C-terminal activation domain (amino acids 132-712) (protein, UniProt P42224 132-712, looked up, fragment)
chain: STVMLDKQKELDSKVRNVKDKVMCIEHEIKSLEDLQDEYDFKCKTLQNREHETNGVAKSDQKQEQLLLKKMYLMLDNKRKEVVHKIIELLNVTELTQNALINDELVEWKRRQQSACIGGPPNACLDQLQNWFTIVAESLQQVRQQLKKLEELEQKYTYEHDPITKNKQVLWDRTFSLFQQLIQSSFVVERQPCMPTHPQRPLVLKTGVQFTVKLRLLVKLQELNYNLKVKVLFDKDVNERNTVKGFRKFNILGTHTKVMNMEESTNGSLAAEFRHLQLKEQKNAGTRTNEGPLIVTEELHSLSFETQLCQPGLVIDLETTSLPVVVISNVSQLPSGWASILWYNMLVAEPRNLSFFLTPPCARWAQLSEVLSWQFSSVTKRGLNVDQLNMLGEKLLGPNASPDGLIPWTRFCKENINDKNFPFWLWIESILELIKKHLLPLWNDGCIMGFISKERERALLKDQQPGTFLLRFSESSREGAITFTWVERSQNGGEPDFHAVEPYTKKELSAVTFPDIIRNYKVMAAENIPENPLKYLYPNIDKDHAFGKYYSRPKEAPEPMELDGPKGTGYIKTELISVSEV
modifications: phosphorylated
B2: the “average fold impact on binding compared to P-STAT1 at preferred binding sites” value in assay [1] (reduced binding) stood at 2.6 fold.
